Assay results published in patent US9845340B2, “Peptides that specifically bind HGF receptor (cMet) and uses thereof” (Dyax Corp., priority 2003, dated 2017).

Assays:
cMet-Fc fusion protein = cMet-Fc fusion protein (Homo sapiens, UniProt P08581); test: Protein phage ELISA: peptide-displaying phage binding to soluble cMet-Fc versus TRAIL-Fc; settings: phage isolate; cMet-Fc vs. TRAIL-Fc
Summary of the method: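 Plates coated with 0.5 μg/mL cMet-Fc or, as background, TRAIL-Fc, then blocked with 3% BSA in PBST. Peptide-displaying phage bound 2 h at room temperature. Detection with HRP-anti-M13 antibody.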

[1] = biological target: T1, 3T3 cells that over-express human cMet (Homo sapiens, UniProt P08581); test: Whole cell ELISA of peptide-displaying phage; assay type: cell-based; settings: phage isolate; 3T3 cells expressing human cMet vs. non-expressing 3T3 cells
T1 construct: expressed in transfected cells; host or cells: 3T3 cells
T1 sequence (P08581 25-1390): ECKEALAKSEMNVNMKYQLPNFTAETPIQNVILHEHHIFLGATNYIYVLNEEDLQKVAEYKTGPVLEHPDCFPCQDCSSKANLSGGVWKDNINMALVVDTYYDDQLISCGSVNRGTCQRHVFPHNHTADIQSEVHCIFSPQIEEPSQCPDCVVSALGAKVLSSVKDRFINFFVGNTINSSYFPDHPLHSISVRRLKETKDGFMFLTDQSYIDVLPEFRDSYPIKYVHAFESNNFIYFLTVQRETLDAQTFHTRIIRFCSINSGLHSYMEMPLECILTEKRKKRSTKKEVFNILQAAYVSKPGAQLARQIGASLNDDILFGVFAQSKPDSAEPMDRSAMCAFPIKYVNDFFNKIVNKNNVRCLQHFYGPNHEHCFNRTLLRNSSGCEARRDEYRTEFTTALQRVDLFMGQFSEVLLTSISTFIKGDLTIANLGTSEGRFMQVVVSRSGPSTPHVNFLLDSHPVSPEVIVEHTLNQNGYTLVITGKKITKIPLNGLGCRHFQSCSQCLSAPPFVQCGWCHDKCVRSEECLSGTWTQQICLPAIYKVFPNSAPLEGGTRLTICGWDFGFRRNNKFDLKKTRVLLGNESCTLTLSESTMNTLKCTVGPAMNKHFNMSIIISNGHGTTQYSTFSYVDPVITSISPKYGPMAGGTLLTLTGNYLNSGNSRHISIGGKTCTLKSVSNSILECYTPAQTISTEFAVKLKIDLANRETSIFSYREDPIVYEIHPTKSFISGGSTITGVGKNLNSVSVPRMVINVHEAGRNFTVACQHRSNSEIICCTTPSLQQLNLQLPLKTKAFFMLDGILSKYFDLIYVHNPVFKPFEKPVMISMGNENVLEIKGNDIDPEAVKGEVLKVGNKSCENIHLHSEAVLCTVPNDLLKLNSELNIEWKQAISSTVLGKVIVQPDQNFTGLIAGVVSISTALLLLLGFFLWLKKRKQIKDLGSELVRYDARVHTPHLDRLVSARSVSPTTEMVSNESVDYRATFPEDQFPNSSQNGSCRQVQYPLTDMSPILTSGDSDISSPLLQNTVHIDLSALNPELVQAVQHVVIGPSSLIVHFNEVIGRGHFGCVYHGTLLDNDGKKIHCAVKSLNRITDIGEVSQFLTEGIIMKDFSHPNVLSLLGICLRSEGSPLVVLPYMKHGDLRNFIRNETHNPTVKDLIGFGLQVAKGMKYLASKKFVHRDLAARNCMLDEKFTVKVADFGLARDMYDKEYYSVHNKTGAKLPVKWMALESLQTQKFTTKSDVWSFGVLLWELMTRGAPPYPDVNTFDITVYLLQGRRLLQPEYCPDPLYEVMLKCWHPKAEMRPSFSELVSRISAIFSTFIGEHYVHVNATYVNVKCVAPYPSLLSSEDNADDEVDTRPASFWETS
Summary of the method: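 3T3 cells over-expressing human cMet seeded 10^5/well, pelleted and fixed with 0.1% glutaraldehyde 12 min at 37 °C. Blocked peptide-displaying phage bound 1 h at room temperature; after PBST wash, bound phage detected with HRP-conjugated anti-M13 antibody.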

Sequence of cMet-Fc fusion protein (P08581 25-307 limits assumed): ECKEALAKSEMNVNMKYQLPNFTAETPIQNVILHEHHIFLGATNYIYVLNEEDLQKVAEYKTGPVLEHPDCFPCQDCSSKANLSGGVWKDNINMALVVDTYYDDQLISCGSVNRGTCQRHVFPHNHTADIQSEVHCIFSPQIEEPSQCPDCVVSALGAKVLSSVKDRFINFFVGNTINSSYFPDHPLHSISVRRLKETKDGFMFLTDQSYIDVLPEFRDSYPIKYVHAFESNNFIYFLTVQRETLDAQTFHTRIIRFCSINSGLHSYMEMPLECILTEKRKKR
Sequence of cMet-Fc fusion protein (P08581 with tags, fused parts or gaps limits assumed): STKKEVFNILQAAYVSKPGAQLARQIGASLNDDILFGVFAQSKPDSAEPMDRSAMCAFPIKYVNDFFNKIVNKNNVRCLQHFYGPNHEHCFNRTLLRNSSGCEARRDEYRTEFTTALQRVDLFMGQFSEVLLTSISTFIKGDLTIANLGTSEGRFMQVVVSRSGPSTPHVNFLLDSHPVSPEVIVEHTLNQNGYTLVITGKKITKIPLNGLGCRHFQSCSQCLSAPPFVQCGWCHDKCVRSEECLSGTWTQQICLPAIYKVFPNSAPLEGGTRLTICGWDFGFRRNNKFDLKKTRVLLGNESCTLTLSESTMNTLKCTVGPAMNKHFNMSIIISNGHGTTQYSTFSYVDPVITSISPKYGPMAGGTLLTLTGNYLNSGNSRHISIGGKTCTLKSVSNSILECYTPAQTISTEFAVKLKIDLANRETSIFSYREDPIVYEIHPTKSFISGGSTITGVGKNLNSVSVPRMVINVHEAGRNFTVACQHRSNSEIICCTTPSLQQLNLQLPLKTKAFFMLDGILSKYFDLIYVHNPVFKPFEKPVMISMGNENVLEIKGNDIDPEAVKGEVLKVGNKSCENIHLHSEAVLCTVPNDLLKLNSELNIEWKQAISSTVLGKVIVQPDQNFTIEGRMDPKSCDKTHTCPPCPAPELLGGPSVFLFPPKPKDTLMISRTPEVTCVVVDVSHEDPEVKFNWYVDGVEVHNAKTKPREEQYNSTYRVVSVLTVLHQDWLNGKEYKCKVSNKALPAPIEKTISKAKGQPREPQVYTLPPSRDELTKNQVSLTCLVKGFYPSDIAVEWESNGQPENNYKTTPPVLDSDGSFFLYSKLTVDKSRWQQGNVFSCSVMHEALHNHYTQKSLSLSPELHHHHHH

Compound: CC[C@H](C)[C@H](NC(=O)CNC(=O)[C@H](Cc1ccccc1)NC(=O)[C@H](Cc1c[nH]c2ccccc12)NC(=O)[C@H](CO)NC(=O)CNC(=O)[C@H](Cc1c[nH]c2ccccc12)NC(=O)[C@H](Cc1ccccc1)NC(=O)CNC(=O)[C@H](CC(=O)O)NC(=O)[C@@H](NC(=O)[C@H](Cc1ccccc1)NC(=O)[C@H](Cc1ccc(O)cc1)NC(=O)[C@H](CCC(=O)O)NC(=O)[C@H](CCCNC(=N)N)NC(=O)[C@H](CCC(=O)O)NC(=O)[C@H](Cc1c[nH]c2ccccc12)NC(=O)[C@H](CCC(=O)O)NC(=O)[C@H](CCC(N)=O)NC(=O)[C@H](C)NC(C)=O)C(C)C)C(=O)N1CCC[C@H]1C(=O)N[C@@H](Cc1c[nH]cn1)C(=O)NCC(=O)NCC(=O)NCC(=O)N[C@@H](CCCCNC(=O)c1ccc2c(c1)C(=O)OC21c2ccc(O)cc2Oc2cc(O)ccc21)C(N)=O [SEQ ID NO: 472]
- Protein ELISA (cMet-Fc fusion protein): 3.7 fold over background
- WC ELISA [1]: 1.80 fold over background

Compound: CC(=O)N[C@@H](C)C(=O)N[C@@H](CCC(N)=O)C(=O)N[C@@H](Cc1c[nH]cn1)C(=O)N[C@@H](Cc1c[nH]c2ccccc12)C(=O)N[C@@H](CC(=O)O)C(=O)N[C@@H](Cc1ccc(O)cc1)C(=O)N[C@@H](CC(=O)O)C(=O)N[C@@H](CO)C(=O)NCC(=O)N[C@@H](CO)C(=O)N[C@@H](CC(=O)O)C(=O)N[C@@H](Cc1ccccc1)C(=O)N[C@@H](Cc1c[nH]c2ccccc12)C(=O)N[C@@H](Cc1ccccc1)C(=O)N1CCC[C@H]1C(=O)N[C@H](C(=O)N[C@@H](Cc1ccccc1)C(=O)N[C@@H](Cc1ccccc1)C(=O)N[C@@H](CC(C)C)C(=O)N[C@@H](CCC(=O)O)C(=O)N[C@@H](Cc1c[nH]cn1)C(=O)N[C@@H](Cc1c[nH]cn1)C(=O)NCC(=O)NCC(=O)NCC(=O)N[C@@H](CCCCNC(=O)c1ccc2c(c1)C(=O)OC21c2ccc(O)cc2Oc2cc(O)ccc21)C(N)=O)C(C)C [SEQ ID NO: 475]
- Protein ELISA (cMet-Fc fusion protein): 3.5 fold over background
- WC ELISA [1]: 1.30 fold over background

Compound: CC[C@H](C)[C@H](NC(=O)[C@@H](NC(=O)[C@H](CCC(=O)O)NC(=O)CNC(=O)[C@H](Cc1c[nH]c2ccccc12)NC(=O)[C@H](Cc1c[nH]cn1)NC(=O)[C@@H](NC(=O)[C@H](CC(C)C)NC(=O)CNC(=O)[C@H](CC(=O)O)NC(=O)[C@H](Cc1c[nH]cn1)NC(=O)[C@@H]1CCCN1C(=O)[C@H](Cc1c[nH]c2ccccc12)NC(=O)[C@H](CCC(N)=O)NC(=O)[C@H](C)NC(C)=O)C(C)C)C(C)C)C(=O)N[C@@H](CCSC)C(=O)N[C@@H](CC(C)C)C(=O)N[C@@H](CCCNC(=N)N)C(=O)N[C@@H](Cc1ccccc1)C(=O)NCC(=O)NCC(=O)NCC(=O)N[C@@H](CCCCNC(=O)c1ccc2c(c1)C(=O)OC21c2ccc(O)cc2Oc2cc(O)ccc21)C(N)=O [SEQ ID NO: 479]
- Protein ELISA (cMet-Fc fusion protein): 3.3 fold over background
- WC ELISA [1]: 1.37 fold over background

Compound: CC[C@H](C)[C@H](NC(=O)[C@@H](NC(=O)[C@H](CCC(=O)O)NC(=O)[C@H](Cc1c[nH]cn1)NC(=O)[C@@H](NC(=O)[C@H](C)NC(=O)[C@@H]1CCCN1C(=O)[C@H](CC(N)=O)NC(=O)[C@H](Cc1ccccc1)NC(=O)[C@H](CCCCN)NC(=O)[C@H](Cc1ccccc1)NC(=O)[C@H](Cc1c[nH]cn1)NC(=O)[C@@H](NC(=O)[C@@H](NC(=O)[C@H](C)NC(=O)[C@H](CCSC)NC(=O)[C@H](CC(=O)O)NC(=O)[C@H](CCC(=O)O)NC(=O)[C@@H](NC(=O)[C@H](CCC(N)=O)NC(=O)[C@H](C)NC(C)=O)C(C)C)[C@@H](C)O)C(C)C)[C@@H](C)O)C(C)C)C(=O)N[C@@H](Cc1c[nH]c2ccccc12)C(=O)NCC(=O)NCC(=O)NCC(=O)N[C@@H](CCCCNC(=O)c1ccc2c(c1)C(=O)OC21c2ccc(O)cc2Oc2cc(O)ccc21)C(N)=O [SEQ ID NO: 492]
- Protein ELISA (cMet-Fc fusion protein): 3.2 fold over background
- WC ELISA [1]: 1.53 fold over background

Compound: ADAWMCEYFQWNCGDKGT (Synthetically generated cMet-binding peptide sequence) [SEQ ID NO: 046]
- Protein ELISA (cMet-Fc fusion protein): 4.5 fold over background
- WC ELISA [1]: 1.33 fold over background

Compound: AGAFFCSGPPTFMCSLYGT (Synthetically generated cMet-binding peptide sequence) [SEQ ID NO: 098]
- Protein ELISA (cMet-Fc fusion protein): 6.2 fold over background
- WC ELISA [1]: 1.27 fold over background

Compound: AGAWNCEYPTFICEWQGA (Synthetically generated cMet-binding peptide sequence) [SEQ ID NO: 012]
- Protein ELISA (cMet-Fc fusion protein): 4.5 fold over background
- WC ELISA [1]: 1.27 fold over background

Compound: AGDFICQGPPSFVCTNIGT (Synthetically generated cMet-binding peptide sequence) [SEQ ID NO: 097]
- Protein ELISA (cMet-Fc fusion protein): 8.4 fold over background
- WC ELISA [1]: 1.27 fold over background

Compound: AGDGWCMAWPEICEWLGT (Synthetically generated cMet-binding peptide sequence) [SEQ ID NO: 014]
- Protein ELISA (cMet-Fc fusion protein): 4.8 fold over background
- WC ELISA [1]: 1.33 fold over background

Compound: AGDHYCWEEWWFCWDSGT (Synthetically generated cMet-binding peptide sequence) [SEQ ID NO: 021]
- Protein ELISA (cMet-Fc fusion protein): 3.5 fold over background
- WC ELISA [1]: 1.37 fold over background

Compound: AGDWHCQGPPAFMCWMIGT (Synthetically generated cMet-binding peptide sequence) [SEQ ID NO: 065]
- Protein ELISA (cMet-Fc fusion protein): 4.7 fold over background
- WC ELISA [1]: 1.30 fold over background

Compound: AGDWICHGPPMFECEWVGT (Synthetically generated cMet-binding peptide sequence) [SEQ ID NO: 058]
- Protein ELISA (cMet-Fc fusion protein): 15.9 fold over background
- WC ELISA [1]: 1.17 fold over background

Compound: AGEIFCVGPPTFTCMWTGT (Synthetically generated cMet-binding peptide sequence) [SEQ ID NO: 096]
- Protein ELISA (cMet-Fc fusion protein): 9.7 fold over background
- WC ELISA [1]: 1.27 fold over background

Compound: AGETFCSGWPTFECMQWGT (Synthetically generated cMet-binding peptide sequence) [SEQ ID NO: 095]
- Protein ELISA (cMet-Fc fusion protein): 16.2 fold over background
- WC ELISA [1]: 1.23 fold over background

Compound: AGETFCVGNPSFECWSWGT (Synthetically generated cMet-binding peptide sequence) [SEQ ID NO: 094]
- Protein ELISA (cMet-Fc fusion protein): 10.3 fold over background
- WC ELISA [1]: 1.27 fold over background

Compound: AGETKCSGPPYFYCWMEGT (Synthetically generated cMet-binding peptide sequence) [SEQ ID NO: 093]
- Protein ELISA (cMet-Fc fusion protein): 16.3 fold over background
- WC ELISA [1]: 1.23 fold over background

Compound: AGETTCLGWPTFVCVDYGT (Synthetically generated cMet-binding peptide sequence) [SEQ ID NO: 063]
- Protein ELISA (cMet-Fc fusion protein): 5.3 fold over background
- WC ELISA [1]: 1.27 fold over background

Compound: AGETVCYWLNGWFCVDDGT (Synthetically generated cMet-binding peptide sequence) [SEQ ID NO: 073]
- Protein ELISA (cMet-Fc fusion protein): 7.8 fold over background
- WC ELISA [1]: 1.10 fold over background

Compound: AGFVNCKGPPTFECILTGT (Synthetically generated cMet-binding peptide sequence) [SEQ ID NO: 057]
- Protein ELISA (cMet-Fc fusion protein): 12.3 fold over background
- WC ELISA [1]: 1.23 fold over background

Compound: AGFWDCGWMMQDCHMHGT (Synthetically generated cMet-binding peptide sequence) [SEQ ID NO: 045]
- Protein ELISA (cMet-Fc fusion protein): 3.9 fold over background
- WC ELISA [1]: 1.33 fold over background

Compound: AGGFACGPPWDICWMFGT (Synthetically generated cMet-binding peptide sequence) [SEQ ID NO: 011]
- Protein ELISA (cMet-Fc fusion protein): 5.6 fold over background
- WC ELISA [1]: 1.30 fold over background

Compound: AGGHWCLELKHLCPPYGT (Synthetically generated cMet-binding peptide sequence) [SEQ ID NO: 044]
- Protein ELISA (cMet-Fc fusion protein): 4.1 fold over background
- WC ELISA [1]: 1.23 fold over background

Compound: AGGNWCSFYEELCEWLGT (Synthetically generated cMet-binding peptide sequence) [SEQ ID NO: 043]
- Protein ELISA (cMet-Fc fusion protein): 4.2 fold over background
- WC ELISA [1]: 1.37 fold over background

Compound: AGHFECPKHQYMCDMPGT (Synthetically generated cMet-binding peptide sequence) [SEQ ID NO: 042]
- Protein ELISA (cMet-Fc fusion protein): 3.1 fold over background
- WC ELISA [1]: 1.23 fold over background

Compound: AGHGTCRGWPTFECIYFGT (Synthetically generated cMet-binding peptide sequence) [SEQ ID NO: 064]
- Protein ELISA (cMet-Fc fusion protein): 6.0 fold over background
- WC ELISA [1]: 1.40 fold over background

Compound: AGHTICQHKALGCPANGT (Synthetically generated cMet-binding peptide sequence) [SEQ ID NO: 041]
- Protein ELISA (cMet-Fc fusion protein): 3.1 fold over background
- WC ELISA [1]: 1.27 fold over background

Compound: AGHYWCAGPPTFICMGPGT (Synthetically generated cMet-binding peptide sequence) [SEQ ID NO: 062]
- Protein ELISA (cMet-Fc fusion protein): 10.2 fold over background
- WC ELISA [1]: 1.40 fold over background

Compound: AGIWFCNNEEKSCWAYGT (Synthetically generated cMet-binding peptide sequence) [SEQ ID NO: 040]
- Protein ELISA (cMet-Fc fusion protein): 3.0 fold over background
- WC ELISA [1]: 1.37 fold over background

Compound: AGKQWCVVWEETCDQLGT (Synthetically generated cMet-binding peptide sequence) [SEQ ID NO: 039]
- Protein ELISA (cMet-Fc fusion protein): 3.7 fold over background
- WC ELISA [1]: 1.33 fold over background

Compound: AGKTVCQKWESVCSGMGT (Synthetically generated cMet-binding peptide sequence) [SEQ ID NO: 038]
- Protein ELISA (cMet-Fc fusion protein): 3.1 fold over background
- WC ELISA [1]: 1.30 fold over background
